Molecular target: SARS-COV-2 D614G spike trimer (SARS-CoV-2, UniProt P0DTC2 14-1208)
Test: SPR

Row | Binder | Kd [nM]
1 | engineered monoclonal antibody 12-19 (antibody, V domains shown) VH: QVQLVESGGGVVQPGRSLRLSCEASGFTFNTYDMHWARQAPGKGLEWVAVIWYDGSNKFYADSVKGRFTISRDNSKNTLYLQMNSLRAEDTAVYYCARDRTPVYDILTGYYWPPPRVDGMDVWGQGTTVTVSS VL: DNVMTQTPFSLSVTPGQPASISCKSSQSLLHSDGKTYLYWYLQKPGQSPQLLIYEVSNRFSGVPERFSGSGSGTDFTLKISRVEAEDVGVYYCMQSIQLPFTFGQGTKLEIK | 9.35
2 | engineered monoclonal antibody 12-16 (antibody, V domains shown) VH: QVQLVESGGGVVQPGRSLRLSCAASGFTFSNYGMHWVRQAPGKGLEWVAIISFDGSNRYYADSVKGRFTISRDNSKNTLYLQMDSLRAEDTAVYYCAKDLSFYYDISTGYYPQSYNSGTDVWGQGTTVTVSS VL: not shown | 1.6
